Experimental data from patent US20180162931A1.

Legend:
rat α-CGRP (1-37) (rat) = assay: Biacore 37 C, Fab over N-biotinylated rat α-CGRP on SA chip
[1] = target: human α-CGRP 1-37 (WT) (human); assay: Biacore 37 C, Fab over N-biotinylated CGRP on SA chip
[2] = target: human α-CGRP fragment 25-37 (human); assay: Biacore 25 C, Fab over N-biotinylated fragment on SA chip
[3] = target: human α-CGRP 1-37 (WT) (human); assay: Biacore 25 C, Fab over N-biotinylated CGRP on SA chip

Chain of human α-CGRP 1-37 (WT) (human) (peptide, as listed by the source): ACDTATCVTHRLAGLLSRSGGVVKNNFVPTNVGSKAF
Chain of rat α-CGRP (1-37) (rat) (peptide, as listed by the source): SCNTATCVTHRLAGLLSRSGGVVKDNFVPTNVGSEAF

Kd (rat α-CGRP (1-37) (rat)): 0.0034 µM | Kd [1]: 0.139 µM | fold lower affinity than binding to full length human α-CGRP [2]: 6 fold | Kd [3]: 0.061 µM
Substance: anti-CGRP monoclonal antibody 4901 (Sigma, Product No. C7113), Fab fragment
